Values of other authors, collected in US10544449B2, “Bis-biotinylation tags” (Pacific Biosciences of California, Inc., priority 2013, dated 2020).

Assays:
[1] = compared with streptavidin; cited from earlier work
[2] = cited from earlier work

| Substance | slower biotin off-rate [1] [fold] | accumulation in kidney, share of injected dose ([2]; injected streptavidin) | time remaining in the kidneys ([2]; mice, rats, and rabbits) [days] |
| --- | --- | --- | --- |
| traptavidin | ~10 | – | – |
| streptavidin | – | 15-20% | 3 to 4 |
